Data taken from patent US20250042949A1.

Molecular target: recombinant human ACE2 receptor (SinoBiological) (human) (UniProt Q9BYF1)
UniProt Q9BYF1, sequence (Q9BYF1 18-740 limits assumed): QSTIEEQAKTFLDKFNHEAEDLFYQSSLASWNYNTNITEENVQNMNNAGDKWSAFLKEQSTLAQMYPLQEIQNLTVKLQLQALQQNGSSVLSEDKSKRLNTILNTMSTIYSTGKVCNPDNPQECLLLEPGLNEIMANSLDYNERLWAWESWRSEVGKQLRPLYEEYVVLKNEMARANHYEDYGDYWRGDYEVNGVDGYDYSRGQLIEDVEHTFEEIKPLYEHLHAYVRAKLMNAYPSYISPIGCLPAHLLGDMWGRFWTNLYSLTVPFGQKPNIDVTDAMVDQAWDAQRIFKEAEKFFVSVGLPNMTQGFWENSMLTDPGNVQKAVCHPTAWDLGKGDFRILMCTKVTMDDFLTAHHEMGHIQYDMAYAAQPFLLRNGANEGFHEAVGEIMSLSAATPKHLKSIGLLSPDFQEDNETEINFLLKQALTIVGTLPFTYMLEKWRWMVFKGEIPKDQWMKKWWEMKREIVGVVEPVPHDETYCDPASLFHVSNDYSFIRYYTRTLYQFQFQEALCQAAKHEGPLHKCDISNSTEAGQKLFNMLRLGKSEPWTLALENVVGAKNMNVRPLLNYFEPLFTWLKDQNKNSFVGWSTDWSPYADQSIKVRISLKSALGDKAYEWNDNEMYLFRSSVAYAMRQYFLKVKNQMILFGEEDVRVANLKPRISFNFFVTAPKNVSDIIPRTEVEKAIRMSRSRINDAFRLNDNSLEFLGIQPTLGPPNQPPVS

## RBD-omicron BA.5 (RBD-C-tag) (other; other documents disagree on this pair)
  fold higher binding activity than the reference Wuhan RBD-C-tag: 8 fold

## RBD-omicron B.1.1.529 (RBD-C-tag) (other; other documents disagree on this pair)
  fold higher binding activity than the reference Wuhan RBD-C-tag: 4 fold
